B1: recombinant human fibromodulin (FMOD) with C-terminal His-tag (natural protein, UniProt Q06828 19-376, looked up)
chain: QYEDDPHWWFHYLRSQQSTYYDPYDPYPYETYEPYPYGVDEGPAYTYGSPSPPDPRDCPQECDCPPNFPTAMYCDNRNLKYLPFVPSRMKYVYFQNNQITSIQEGVFDNATGLLWIALHGNQITSDKVGRKVFSKLRHLERLYLDHNNLTRMPGPLPRSLRELHLDHNQISRVPNNALEGLENLTALYLQHNEIQEVGSSMRGLRSLILLDLSYNHLRKVPDGLPSALEQLYMEHNNVYTVPDSYFRGAPKLLYVRLSHNSLTNNGLASNTFNSSSLLELDLSYNQLQKIPPVNTNLENLYLQGNRINEFSISSFCTVVDVVNFSKLQVLRLDGNEIKRSAMPADAPLCLRLASLIEI
notes: fibromodulin, human; cDNA of a human FMOD transcript (NM_002023) subcloned into pSecTag2A; secreted into the culture supernatant of CHO-K1 cells; Proteoglycan made in CHO cells; also called His-tagged FMOD; not shown: His-tag, C-terminal, kept
B2: recombinant IL1R1 (R&D Systems 269-1R-100/CF) (receptor, human, UniProt P14778 18-336, looked up)
chain: LEADKCKEREEKIILVSSANEIDVRPCPLNPNEHKGTITWYKDDSKTPVSTEQASRIHQHKEKLWFVPAKVEDSGHYYCVVRNSSYCLRIKISAKFVENEPNLCYNAQAIFKQKLPVAGDGGLVCPYMEFFKNENNELPKLQWYKDCKPLLLDNIHFSGVKDRLIVMNVAEKHRGNYTCHASYTYLGKQYPITRVIEFITLEENKPTRPVIVSPANETMEVDLGSQIQLICNVTGQLSDIAYWKWNGSVIDEDDPVLGEDYYSVENPANKRRSTLITVLNISEIESRFYKHPFTCFAKNTHGIDAAYIQLIYPVTNFQK
notes: interleukin 1 receptor type 1, recombinant, His-tag-free, 55 kDa on SDS-PAGE, carrier-free; also called interleukin 1 receptor type 1; source: bought: R&D Systems (carrier-free)

Tests used:
[1] = biological target: T1, IL1β-IL1R1-IL1RAP ternary complex formed in vitro from recombinant proteins (human, UniProt P01584 117-269; P14778 18-336; Q9NPH3 21-367); test: pull-down; Pierce His Protein Interaction Pull-Down Kit; 150 μg His-tagged FMOD immobilised as bait; His-tag-free 100 μg IL1β, 100 μg IL1R1, 100 μg IL1RAP, or the complex formed beforehand (100 μg IL1β, 50 μg IL1R1, 50 μg IL1RAP, 4 °C overnight) as prey; eluate by SDS-PAGE and Western blotting; details: both partners purified
T1 construct: interleukin 1 beta, human, recombinant, His-tag-free, 17 kDa on SDS-PAGE; as m2; interleukin 1 receptor type 1, recombinant, His-tag-free, 55 kDa on SDS-PAGE; as m3; interleukin 1 receptor accessory protein, recombinant, His-tag-free, 70-75 kDa on SDS-PAGE; as m4; See the notes of m3 and m4 on the bought constructs; also called IL1β-IL1R1-IL1RAP complex; IL1β-IL1R1-ILRAP ternary complex; source: …

[2] = biological target: B1; test: SPR; Biacore 3000; FMOD immobilised on CM5 chip by amine coupling; IL1R1 or IL1RAP in HBS-EP pH 7.4 (0.15 M NaCl, 10 mM HEPES, 3 mM EDTA, 0.005% polysorbate 20), 50 μL/minute; double referencing; Scrubber 2.0; details: both partners purified
[3] = biological target: T2, recombinant human fibromodulin (FMOD) with C-terminal His-tag (human, UniProt Q06828 19-376); test: SPR
T2 chain: B1 chain

Binder	binding result [1]	Kd [2] [nM]	koff [3] [s⁻¹]
B1	binds		
B2		430	0.02

Reference: publication PMC11993684, “Fibromodulin selectively accelerates myofibroblast apoptosis in cutaneous wounds by enhancing interleukin 1β signaling” (Nature Communications, 2025)
